Results taken from patent US12460245B2, “Luciferase sequences utilizing infrared-emitting substrates to produce enhanced luminescence” (Promega Corporation, priority 2014, dated 2025).
Residue numbers refer to the chain shown, from its start. Numbers in names are those of the source. Where “and” joins values, the source holds several entries; their conditions need not be identical. Equal values may be shown once. One block for each molecule: values may come before it.

How the values were obtained:
ATG 1240 = assay: Mimicry of tissue attenuation using long pass filters, transfected HEK293T cells; assay type: cell-based, click beetle; settings: HEK293T cells expressing ATG 1240
Protocol: A transfection complex was prepared by diluting ATG 1240 DNA or Luc2 DNA (pF4Ag-Luc2) to 100 ng/μL, and then 2× serial dilutions prepared in 50 ng/μL pGEM carrier DNA. 40 μL of the diluted DNA was the mixed with 160 μL phenol red free OptiMEM and 16 μL of FuGENE® HD and incubated for 20 min. 5 μL of each transfection complex was added to wells of a 96-well black assay plates and then 100 μL of diluted HEK293T cells (200,000/mL in DMEM+10% FBS) was added. The cells were grown overnight at 37° C. with CO2.
To assay the cells, 4 mM D-luciferin, 2 mM PBI-4813 and 2 mM PBI-4739 substrate solutions were prepared in DMEM+10% FBS. 100 μL of the D-luciferin solution was added to cells expressing Luc2 and ATG 1240, and 100 μL of PBI-4813 or PBI-4739 solution was added to ATG 1240 expressing cells. Samples were incubated for 10 min at 37° C., and luminescence detected on GloMax® Discover (heated to 37° C.) with no filter, 610 nm Long Pass (LP) filter, 665 nm LP filter, 695 nm LP filter, 720 nm LP filter or 760 nm LP filter.

[1] = Combinations of H-acceptor and library screen mutants, lysate luminescence; assay type: biochemical; settings: for Luminescence normalized to CBR luciferase, D-LH2 (luciferin): substrate D-LH2 (luciferin); for Luminescence normalized to CBR luciferase, PBI-4739: substrate PBI-4739; for Luminescence normalized to CBR luciferase, PBI-4813: substrate PBI-4813
Protocol: (§1) 2. Cell lysates were prepared from cells containing the variants listed in Table 3 by diluting 100 μL of induced culture with 100 μL of lysis buffer (0.3×PLB, 0.006U RQ DNAse1) using a Tecan liquid handling robot. 50 μL of each cell lysate was assayed with either PBI-4813 or PBI-4739 (20 μM in Bright-Glo™ assay buffer containing 1 mM ATP), and luminescence detected on an ImageQuant CCD imager. Luminescence of the variants was normalized to CBR luciferase (FIG. 8).
Combinations of the Hydrogen acceptor mutants identified in Example 6 were designed and prepared using the QuikChange Multi Site-Directed Mutagenesis Kit (Agilent). Variants were cloned and expressed as described in Example 2 except the template was pF4Ag-CBR. Variants were screened as described in Example 6. Luminescence of the variants using luciferin (“D-LH2”), PBI-4813, and PBI-4739 was normalized to CBR luciferase (Table 4 and FIG. 9).

[2] = Luminescence of ATG 1230 and ATG 1240 cell lysates, GloMax Discover with red-sensitive PMT; assay type: biochemical; settings: for Luminescence, PBI-4739 / Luminescence, PBI 4813: cell lysate; for Luminescence, PBI-4739: 20 μM PBI-4739; for Luminescence, PBI 4813: 20 μM PBI-4813, GloMax Discover red-sensitive PMT; for PBI-4813/PBI-4739: ratio of luminescence with the two substrates
Protocol: as §1
Variant clones identified as ATG 1230 (CBR+389F+444R+251S) and ATG 1240 (CBR+334S+351R) were further evaluated for their luminescence, spectral property, Km and live cell kinetics with either PBI-4813 or PBI-4739. These variants were cloned and expressed as described in Example 2 except the template was pF4Ag-CBR, i.e., no HALOTAG®.
A. Luminescence with PBI-4813 and PBI-4739. Cell lysates of these variant clones were prepared and assayed for luminescence as described in Example 6. Luminescence was detected on a GloMax® Discover equipped with a red-sensitive photomultiplier tube (PMT) and compared to CBR luciferase (Table 5 and FIG. 10).

[3] = Substrate inhibition of luciferase activity at high substrate concentration; assay type: biochemical; settings: PBI-4813 at concentrations greater than ten times the Km
[4] = Recombination of ATG 1240 library mutants, lysate luminescence; assay type: biochemical
Excerpt: 2. […] Luminescence of the variants was normalized to CBR luciferase (FIG. 8). Combinations of the ATG 1240 library mutants identified in Example 9 were designed and prepared using DNA shuffling ([…] USA 91:10747-10751). Briefly, a library of mutant genes was created via DNA shuffling. The mutant genes were then cloned into the pF4Ag vector and screened as described in Example 6. Luminescence was detected on a GloMax® Discover Multimode Detection System and normalized to ATG-1240 luciferase (Table 8 and FIG. 15).

[5] = Km titration of ATG 1240 compared with CBR in live HEK293T cells; assay type: cell-based; settings: 60 min at 37° C.
Protocol: HEK293T cells were plated at 15,000 cells/well into wells of 96-well white assay plates and grown overnight. A transfection mixture was made containing 6.6 μg of CBR or ATG-1240 DNA and 20 μL FuGENE® HD in a total volume of 310 μL OptiMEM. The mixture was incubated at room temperature for 10 min. The cells were then transfected, in triplicate, with 5 μL of transfection complex and grown overnight.
The transfected cells were then assayed. 2× serial dilutions of PBI-4813 and PBI-4739 starting at 2 mM in CO2 independent media+0.5% FBS were prepared. The growth media from the transfected cells was removed and replaced with one of the serial diluted substrate containing media. The cells were incubated 60 min at 37° C., and luminescence detected on a modified GloMax® Discover luminometer containing a red shifted PMT (see FIG. 23A and FIG. 23B). The Km of ATG 1240 was about 5 times higher than the Km of CBR with PBI-4813. The Km of ATG 1240 was about 3 times higher than the Km of CBR with PBI-4739.

[6] = Secondary library screen using ATG 1240 as template, lysate luminescence; assay type: biochemical; settings: ATG 1240 template (WT = ATG-1240)
Protocol: A random clone library was prepared as described in Example 2 using ATG 1240 as a template. The variants were then cloned into pF4Ag (no HT7). The library was screened as follows (50 plates total):
i. Primary Screen. Cells were grown as described in Example 2. Cell lysates were prepared by diluting 100 μL of induced culture with 100 μL of lysis buffer (0.3×PLB+0.006U RQDNAse1) using a Tecan liquid handling robot. 50 μL of each cell lysate was then assayed with either PBI-4813 or PBI-4739. (20 μM substrate in Bright-Glo™ assay buffer containing 1 mM ATP). Luminescence was detected on a GloMax® Discover.
ii. Secondary Screen. Cells from each hit in the primary screen were streaked onto new plates and grown overnight. Colonies were picked in quadruplicate and cultures were grown as described in Example 2. 50 μL of each cell lysate was assayed with 50 μL of BrightGlo™ assay buffer containing 1 mM ATP and 30 μM PBI-4813 or 50 μM PBI-4739. Luminescence was detected on a GloMax® Discover Multimode Detection System (Table 6). The variants in this library were identified as having on average between 2-3 mutations per gene.

[7] = listed as 251S + 389F + 444R (343 template)

Molecule: O=C(O)[C@H]1CSC(c2nc3ccc(O)cc3s2)=N1 [D-luciferin, D-(−)-2-(6′-hydroxy-2′-benzoth-iazolyl)-Δ^2-thiazolin-4-carboxylic acid]
luminescence of ATG 1240 when light is attenuated with long pass filters (ATG 1240; 37° C.): may be brighter than with PBI-4739 | luminescence of ATG 1240 at the greatest light attenuation (ATG 1240; long pass filters): comparable

B1: CBR: click beetle red luciferase polypeptide of SEQ ID NO: 1 (protein)
chain: MVKREKNVIYGPEPLHPLEDLTAGEMLFRALRKHSHLPQALVDVVGDESLSYKEFFEATVLLAQSLHNCGYKMNDVVSICAENNTRFFIPVIAAWYIGMIVAPVNESYIPDELCKVMGISKPQIVFTTKNILNKVLEVQSRTNFIKRIIILDTVENIHGCESLPNFISRYSDGNIANFKPLHFDPVEQVAAILCSSGTTGLPKGVMQTHQNICVRLIHALDPRYGTQLIPGVTVLVYLPFFHAFGFHITLGYFMVGLRVIMFRRFDQEAFLKAIQDYEVRSVINVPSVILFLSKSPLVDKYDLSSLRELCCGAAPLAKEVAEVAAKRLNLPGIRCGFGLTESTSAIIQTLGDEFKSGSLGRVTPLMAAKIADRETGKALGPNQVGELCIKGPMVSKGYVNNVEATKEAIDDDGWLHSGDFGYYDEDEHFYVVDRYKELIKYKGSQVAPAELEEILLKNPCIRDVAVVGIPDLEAGELPSAFVVKQPGTEITAKEVYDYLAERVSHTKYLRGGVRFVDSIPRNVTGKITRKELLKQLLVKAGGV
Luminescence normalized to CBR luciferase, D-LH2 (luciferin) [1]: 1.0 | Luminescence normalized to CBR luciferase, PBI-4739 [1]: 1.0 | Luminescence normalized to CBR luciferase, PBI-4813 [1]: 1.0 | Luminescence, PBI-4739 [2]: 17,431 | Luminescence, PBI 4813 [2]: 98,556 | PBI-4813/PBI-4739 [2]: 5.7 | inhibition of luciferase activity by PBI-4813 [3]: inhibits the activity

B4: ATG 1240: CBR variant R334S and G351R (SEQ ID NO: 2) (protein)
chain: B1 chain with R334S, G351R
Luminescence, PBI-4739 [2]: 37,169 | Luminescence, PBI 4813 [2]: 71,299 | PBI-4813/PBI-4739 [2]: 1.9 | Km higher than the Km of CBR with PBI-4739 [5]: about 3 times | Km higher than the Km of CBR with PBI-4813 [5]: about 5 times | Luminescence, secondary screen, PBI-4813 ([6]; 30 μM PBI-4813, 1 mM ATP): 1.2 and 1.01 and 1.0 and 0.9 and 1.02 and 0.97 | Luminescence, secondary screen, PBI-4739 ([6]; 50 μM PBI-4739, 1 mM ATP): 1.1 and 1.05 and 1.0 and 0.99 and 0.97 and 0.9 | inhibition of luciferase activity by PBI-4813 [3]: does not show this inhibition

Continued, in another order:

Luminescence normalized to ATG-1240 luciferase, D-LH2 ([4]; substrate D-LH2): 2.8 | Luminescence normalized to ATG-1240 luciferase, PBI-4739 ([4]; substrate PBI-4739): 3.8 | Luminescence normalized to ATG-1240 luciferase, PBI-4813 ([4]; substrate PBI-4813): 4.0
B2: 5G5: ATG 1240 variant S51N + S444R (SEQ ID NO: 4) (protein)
chain: B1 chain with S51N, R334S, G351R, S444R

Luminescence normalized to CBR luciferase, D-LH2 (luciferin) [1, 7]: 0.6 and 0.5 | Luminescence normalized to CBR luciferase, PBI-4739 [1, 7]: 1.6 and 1.4 | Luminescence normalized to CBR luciferase, PBI-4813 [1, 7]: 3.4 and 3.2 | inhibition of luciferase activity by PBI-4813 [3]: inhibits the activity
B3: ATG 1230: CBR variant I389F, S444R, G251S (SEQ ID NO: 3) (protein)
chain: B1 chain with G251S, I389F, S444R
Luminescence, PBI-4739 [2]: 26,595 | Luminescence, PBI 4813 [2]: 310,342 | PBI-4813/PBI-4739 [2]: 11.7
